# Measurements reported in US20080131962.
# Assays:
# [1] = system: ZFN pair L+/R+ in cells (synthetic construct); assay: cell_activity; conditions: forced homodimer of cleavage domains
# [2] = system: ZFN pair Lwt/Rwt in cells (synthetic construct); assay: cell_activity; conditions: HEK293 GFP gene correction
# [3] = system: ZFN pair L-/R+ in cells (synthetic construct); assay: cell_activity; conditions: HEK293 GFP gene correction
# [4] = system: ZFN pair L+/R- in cells (synthetic construct); assay: cell_activity; conditions: HEK293 GFP gene correction
# [5] = system: ZFN pair L-/R- in cells (synthetic construct); assay: cell_activity; conditions: forced homodimer of cleavage domains
# [6] = system: ZFN pair L-/R- (Q486E:I499L both) (synthetic construct); assay: cleavage_in_vitro; conditions: cleavage lost through lack of dimerization, not of ZFP binding
# [7] = system: ZFN pair E490K/wt (synthetic construct); assay: cleavage_in_vitro; conditions: average of both orientations
# [8] = system: ZFN pair L+/R- (L-E490K:I538K, R-Q486E:I499L) (synthetic construct); assay: cleavage_in_vitro
# [9] = system: ZFN pair E490K:I538K/Q486E (synthetic construct); assay: cleavage_in_vitro; conditions: average of both orientations
# [10] = system: ZFN pair E490K:I538K/wt (synthetic construct); assay: cleavage_in_vitro; conditions: average of both orientations
# [11] = system: ZFN pair L+/R+ (E490K:I538K both) (synthetic construct); assay: cleavage_in_vitro; conditions: cleavage lost through lack of dimerization, not of ZFP binding
# [12] = system: ZFN pair Q486E/Q486E (synthetic construct); assay: cleavage_in_vitro; conditions: same variant on L and R
# [13] = system: ZFN pair Q486E/wt (synthetic construct); assay: cleavage_in_vitro; conditions: average of both orientations
# [14] = system: ZFN pair Q486E:I499L/wt (synthetic construct); assay: cleavage_in_vitro; conditions: average of both orientations; printed I449L in table
# [15] = system: ZFN pair L-/R+ (L-Q486E:I499L, R-E490K:I538K) (synthetic construct); assay: cleavage_in_vitro; conditions: 2 mM MgCl2, 37 C 2 h
# [16] = system: ZFN pair E490K/E490K (synthetic construct); assay: cleavage_in_vitro; conditions: same variant on L and R
# [17] = system: ZFN pair Lwt/Rwt (wild-type FokI cleavage domains) (synthetic construct); assay: cleavage_in_vitro; conditions: six-fold diluted ZFN, FokI buffer pH 8.5, 2 mM MgCl2, 10 uM ZnCl2, 37 C 2 h
# [18] = system: ZFN pair E490K/Q486E:I499L (synthetic construct); assay: cleavage_in_vitro; conditions: average of both orientations
# [19] = system: ZFN pair E490K/Q486E (synthetic construct); assay: cleavage_in_vitro; conditions: average of both orientations
Sequence,activity (% GFP-positive cells) [1],activity (% GFP-positive cells) [2],activity (% GFP-positive cells) [3],activity (% GFP-positive cells) [4],activity (% GFP-positive cells) [5],cleavage activity relative to wild type (fraction of wt/wt) [6],cleavage activity relative to wild type (fraction of wt/wt) [7],"activity ([8]; 2 mM MgCl2, 37 C 2 h) [% cleaved]","cleavage activity relative to wild type (fraction of wt/wt) ([8]; average of L+/R- and L-/R+, printed I449L in table)",cleavage activity relative to wild type (fraction of wt/wt) [9],cleavage activity relative to wild type (fraction of wt/wt) [10],cleavage activity relative to wild type (fraction of wt/wt) [11],cleavage activity relative to wild type (fraction of wt/wt) [12],cleavage activity relative to wild type (fraction of wt/wt) [13],cleavage activity relative to wild type (fraction of wt/wt) [14],activity [15] [% cleaved],cleavage activity relative to wild type (fraction of wt/wt) [16],activity [17] [% cleaved],cleavage activity relative to wild type (fraction of wt/wt) [18],cleavage activity relative to wild type (fraction of wt/wt) [19]
TGTTCGGAGCCGCTTTAACCCACTCTGTGGAAGTGCT (double strand) [IL2Rgamma ZFN target in eGFP reporter or endogenous locus],0.02,1.27,1.71,1.98,0.12,–,–,–,–,–,–,–,–,–,–,–,–,–,–,–
TGTTCGGAGCCGCTTTAACCCACTCTGTGGAAGTGCT (double strand) [LR heterodimer target],–,–,–,–,–,0,1,50,0.48,0.32,0.74,0,0.19,0.68,0.48,50,0.96,61,0.97,0.96
